Consider 21 molecules from US20120021995A1 (published 2012).

Sequences and labels used below:
T1: recombinant human TRAIL R1 (DR4)/Fc chimera (human, UniProt O00220 24-239)
T1 construct: bought (R&D Systems); not shown: Fc of the bought chimera (R&D Systems)
T1 sequence: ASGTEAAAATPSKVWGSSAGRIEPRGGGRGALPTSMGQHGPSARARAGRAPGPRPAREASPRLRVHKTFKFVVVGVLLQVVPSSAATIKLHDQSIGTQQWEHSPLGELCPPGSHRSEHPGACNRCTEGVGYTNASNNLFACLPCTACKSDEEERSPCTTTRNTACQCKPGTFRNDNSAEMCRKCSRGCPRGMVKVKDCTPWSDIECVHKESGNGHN

B1: 064-40.1C7 (designed binder)
chain: ALQTVCLKGTKVHMKCFLAFTQTKTFHEASEDCISRGGTLSTPQTGSENDALYEYLRQSVGNEAEIWLGLNGWLEGVGWVDMTGARIAYKNWETEITAQPDGGGGVRWENCAVLSGAANGKWFDKRCRDQLPYICQFGIV
notes: on phage
B2: 064-36.1E4 (designed binder)
chain: ALQTVCLKGTKVHMKCFLAFTQTKTFHEASEDCISRGGTLSTPQTGSENDALYEYLRQSVGNEAEIWLGLNVLRLAWSWVDMTGARIAYKNWETEITAQPDGGKRNGCENCAVLSGAANGKWFDKRCRDQLPYICQFGIV
notes: on phage
B3: 014-40.3B3 (designed binder)
chain: ALQTVCLKGTKVHMKCFLAFTQTKTFHEASEDCISRGGTLSTPQTGSENDALYEYLRQSVGNEAEIWLGLNGYMSGYGWVDMTGARIAYKNWETEITAQPDGGMMARWENCAVLSGAANGKWFDKRCRDQLPYICQFGIV
notes: on phage
B4: 029-62.2B3 (designed binder)
chain: ALQTVCLKGTKVHMKCFLAFTQTKTFHEASEDCISRGGTLSTPQTGSENDALYEYLRQSVGNEAEIWLGLNRYHVQALWVDMTGARIAYKNWETEITAQPDGGRVRPRENCAVLSGAANGKWFDKRCRDQLPYICQFGIV
notes: on phage
B5: 014-42.3G8 (designed binder)
chain: ALQTVCLKGTKVHMKCFLAFTQTKTFHEASEDCISRGGTLSTPQTGSENDALYEYLRQSVGNEAEIWLGLNGWLQGVGWVDMTGARIAYKNWETEITAQPDGGRGWPWENCAVLSGAANGKWFDKRCRDQLPYICQFGIV
notes: on phage
B6: 064-36.1E1 (designed binder)
chain: ALQTVCLKGTKVHMKCFLAFTQTKTFHEASEDCISRGGTLSTPQTGSENDALYEYLRQSVGNEAEIWLGLNIWPLRFRWVDMTGARIAYKNWETEITAQPDGGFVTRKENCAVLSGAANGKWFDKRCRDQLPYICQFGIV
notes: on phage
B7: 064-36.1E10 (designed binder)
chain: ALQTVCLKGTKVHMKCFLAFTQTKTFHEASEDCISRGGTLSTPQTGSENDALYEYLRQSVGNEAEIWLGLNGFLAGVGWVDMTGARIAYKNWETEITAQPDGGWWTRWENCAVLSGAANGKWFDKRCRDQLPYICQFGIV
notes: on phage
B8: 014-40.3E11 (designed binder)
chain: ALQTVCLKGTKVHMKCFLAFTQTKTFHEASEDCISRGGTLSTPQTGSENDALYEYLRQSVGNEAEIWLGLNGYLAGYGWVDMTGARIAYKNWETEITAQPDGGPSIWRENCAVLSGAANGKWFDKRCRDQLPYICQFGIV
notes: on phage
B9: 064-36.1D7 (designed binder)
chain: ALQTVCLKGTKVHMKCFLAFTQTKTFHEASEDCISRGGTLSTPQTGSENDALYEYLRQSVGNEAEIWLGLNVRHWLQLWVDMTGARIAYKNWETEITAQPDGGGWWKGENCAVLSGAANGKWFDKRCRDQLPYICQFGIV
notes: on phage
B10: 029-62.2C5 (designed binder)
chain: ALQTVCLKGTKVHMKCFLAFTQTKTFHEASEDCISRGGTLSTPQTGSENDALYEYLRQSVGNEAEIWLGLNVRRMGFHWVDMTGARIAYKNWETEITAQPDGGRVAVGENCAVLSGAANGKWFDKRCRDQLPYICQFGIV
notes: on phage
B11: 014-40.3B2 (designed binder)
chain: ALQTVCLKGTKVHMKCFLAFTQTKTFHEASEDCISRGGTLSTPQTGSENDALYEYLRQSVGNEAEIWLGLNGYIEGTGWVDMTGARIAYKNWETEITAQPDGGSNWAWENCAVLSGAANGKWFDKRCRDQLPYICQFGIV
notes: on phage
B12: 064-21.1A5 (designed binder)
chain: ALQTVCLKGTKVHMKCFLAFTQTKTFHEASEDCISRGGTLSTPQTGSENDALYEYLRQSVGNEAEIWLGLNGFLQGNGWVDMTGARIAYKNWETEITAQPDGGMWDRWENCAVLSGAANGKWFDKRCRDQLPYICQFGIV
notes: on phage
B13: 014-40.3E9 (designed binder)
chain: ALQTVCLKGTKVHMKCFLAFTQTKTFHEASEDCISRGGTLSTPQTGSENDALYEYLRQSVGNEAEIWLGLNPFRVPQWWVDMTGARIAYKNWETEITAQPDGGYGPVQENCAVLSGAANGKWFDKRCRDQLPYICQFGIV
notes: on phage
B14: 014-42.3C7 (designed binder)
chain: ALQTVCLKGTKVHMKCFLAFTQTKTFHEASEDCISRGGTLSTPQTGSENDALYEYLRQSVGNEAEIWLGLNGWLEGYGWVDMTGARIAYKNWETEITAQPDGGTWWEWENCAVLSGAANGKWFDKRCRDQLPYICQFGIV
notes: on phage
B15: 029-62.7D10 (designed binder)
chain: ALQTVCLKGTKVHMKCFLAFTQTKTFHEASEDCISRGGTLSTPQTGSENDALYEYLRQSVGNEAEIWLGLNGLARQQGWVDMTGARIAYKNWETEITAQPDGGKGRPRENCAVLSGAANGKWFDKRCRDQLPYICQFGIV
notes: on phage
B16: 029-62.4F5 (designed binder)
chain: ALQTVCLKGTKVHMKCFLAFTQTKTFHEASEDCISRGGTLSTPQTGSENDALYEYLRQSVGNEAEIWLGLNIQCSPPLWVDMTGARIAYKNWETEITAQPDGGAVQQQENCAVLSGAANGKWFDKRCRDQLPYICQFGIV
notes: on phage
B17: 014-40.3A3 (designed binder)
chain: ALQTVCLKGTKVHMKCFLAFTQTKTFHEASEDCISRGGTLSTPQTGSENDALYEYLRQSVGNEAEIWLGLNGFMVGRGWVDMTGARIAYKNWETEITAQPDGGSMWPWENCAVLSGAANGKWFDKRCRDQLPYICQFGIV
notes: on phage
B18: 029-61.1A5 (designed binder)
chain: ALQTVCLKGTKVHMKCFLAFTQTKTFHEASEDCISRGGTLSTPQTGSENDALYEYLRQSVGNEAEIWLGLNGWLMGTGWVDMTGARIAYKNWETEITAQPDGGWWNRWENCAVLSGAANGKWFDKRCRDQLPYICQFGIV
notes: on phage
B19: 064-36.1B7 (designed binder)
chain: ALQTVCLKGTKVHMKCFLAFTQTKTFHEASEDCISRGGTLSTPQTGSENDALYEYLRQSVGNEAEIWLGLNGWMAGVGWVDMTGARIAYKNWETEITAQPDGGRRLPWENCAVLSGAANGKWFDKRCRDQLPYICQFGIV
notes: on phage
B20: 014-40.3H2 (designed binder)
chain: ALQTVCLKGTKVHMKCFLAFTQTKTFHEASEDCISRGGTLSTPQTGSENDALYEYLRQSVGNEAEIWLGLNMVTRPPYWVDMTGARIAYKNWETEITAQPDGGWVMSFENCAVLSGAANGKWFDKRCRDQLPYICQFGIV
notes: on phage
B21: 014-42.3D9 (designed binder)
chain: ALQTVCLKGTKVHMKCFLAFTQTKTFHEASEDCISRGGTLSTPQTGSENDALYEYLRQSVGNEAEIWLGLNGYLAGVGWVDMTGARIAYKNWETEITAQPDGGRGFRWENCAVLSGAANGKWFDKRCRDQLPYICQFGIV
notes: on phage

The target in the experiment is T1, recombinant human TRAIL R1 (DR4)/Fc …. Kind of experiment: phage ELISA on DR4/Fc. How it is done:
The remaining overnight culture was used to make a master stock plate by adding 100 μL of 50% glycerol to each well and storing at −80° C. The replica culture plate was grown at 37° C. with shaking at 250 rpm for approximately 2 hrs until the OD₆₀₀ was 0.5-0.7. The wells were then infected with K07 helper phage to 5×10⁹ pfu/mL mixed and incubated at 37° C. for 30 minutes without shaking, then incubated an addition 30 minutes at 37° C. with shaking at 250 rpm. The cultures were then spun down at 2500 rpm and 4° C. for 20 minutes. The supernatants were removed from the wells and the bacterial cell pellets were re-suspended in 500 μL of 2xYT containing 50 μg/mL carbenicillin and 50 μg/mL kanamycin. An air-permeable membrane was placed on the culture block and cells were grown overnight at room temperature with shaking at 250 rpm.
On day 3, cultures were spun down and supernatants containing the phage were blocked with 3% milk/PBS for 1 hr at room temperature. An initial Phage ELISA was performed using 75-100 ng of antigen bound per well. Non-specific binding was measured using 75-100 ng of human IgG1 Fc per well. DR4/Fc antigen (R&D Systems)-coated wells and IgG Fc coated wells were prepared fresh the night before by binding the above amount of antigen diluted in 100 μL of PBS per well. Antigen plates were incubated overnight at 4° C. then for 1 hour at 37° C., washed twice with PBS/0.05% Tween 20 and twice with PBS, and then blocked with 3% milk/PBS for 1 hr at 37° C. prior to the ELISA. Blocked phage were bound to blocked antigen-bound plates for 1 hr then washed twice with 0.05% Tween 20/PBS and then twice more with PBS. A HRP-conjugated anti-M13 secondary antibody diluted in 3% milk/PBS was then applied, with binding for 1 hr and washing as described above. The ELISA signal was developed using 90 μL TMB substrate mix and then stopped with 90 μL 0.2 M sulfuric acid, then ELISA plates were read at 450 nm. […] Secondary ELISA screens were performed similarly to the protocol detailed above.
On the technique in general: ELISA stands for enzyme-linked immunosorbent assay.
With B1, the binding result is recorded as “binds”.

For the molecule B2, the binding result is given as “binds”.

Regarding B3, the binding result is “binds”.

For the molecule B4, the binding result was “binds”.

In the case of B5, the binding result is “binds”.

Turning to B6, the binding result is reported as “binds”.

In the case of B7, the binding result is reported as “binds”.

For the molecule B8, the binding result is recorded as “binds”.

In the case of B9, the binding result is reported as “binds”.

On to B10, for which the binding result is “binds”.

Consider B11, for which the binding result was “binds”.

For the molecule B12, the binding result is “binds”.

B13: the binding result was “binds”.

With B14, the binding result was “binds”.

As for B15, the binding result is “binds”.

Regarding B16, the binding result is listed as “binds”.

B17: the binding result is “binds”.

As to B18, the binding result is given as “binds”.

Turning to B19, the binding result was “binds”.

For B20, the binding result is “binds”.

Consider B21, for which the binding result is on record as “binds”.
